The source of these data is paper PMC11967829, “Nudix Hydrolase 13 Impairs the Initiation of Colorectal Cancer by Inhibiting PKM1 ADP‐Ribosylation” (Advanced Science, 2025).

The chains are these.
B2: purified recombinant PKM1 (natural protein)
chain: not shown
notes: PKM1, the M1 splice isoform of pyruvate kinase M (PKM); also called purified PKM1; source: purified recombinant

Assay [1] deals with B2. Nature of the assay: pull-down; in vitro pull-down of N13 peptide with purified PKM1 or PKM2, Coomassie blue staining (Figure 7D). The settings on record: both partners purified.
Assay [2] concerns the target T1, recombinant human PARP1 (human, UniProt P09874 1-1014).
T1 construct: PARP1 (poly ADP-ribose polymerase 1), human, recombinant; The source is named for the in vitro PARylation assay; source: bought: Sino Biological
Nature of the assay: pull-down; in vitro pull-down of PKM1 and PARP1 (Figure 5E). The conditions noted are these: both partners purified.

T1 sequence (P09874 whole entry): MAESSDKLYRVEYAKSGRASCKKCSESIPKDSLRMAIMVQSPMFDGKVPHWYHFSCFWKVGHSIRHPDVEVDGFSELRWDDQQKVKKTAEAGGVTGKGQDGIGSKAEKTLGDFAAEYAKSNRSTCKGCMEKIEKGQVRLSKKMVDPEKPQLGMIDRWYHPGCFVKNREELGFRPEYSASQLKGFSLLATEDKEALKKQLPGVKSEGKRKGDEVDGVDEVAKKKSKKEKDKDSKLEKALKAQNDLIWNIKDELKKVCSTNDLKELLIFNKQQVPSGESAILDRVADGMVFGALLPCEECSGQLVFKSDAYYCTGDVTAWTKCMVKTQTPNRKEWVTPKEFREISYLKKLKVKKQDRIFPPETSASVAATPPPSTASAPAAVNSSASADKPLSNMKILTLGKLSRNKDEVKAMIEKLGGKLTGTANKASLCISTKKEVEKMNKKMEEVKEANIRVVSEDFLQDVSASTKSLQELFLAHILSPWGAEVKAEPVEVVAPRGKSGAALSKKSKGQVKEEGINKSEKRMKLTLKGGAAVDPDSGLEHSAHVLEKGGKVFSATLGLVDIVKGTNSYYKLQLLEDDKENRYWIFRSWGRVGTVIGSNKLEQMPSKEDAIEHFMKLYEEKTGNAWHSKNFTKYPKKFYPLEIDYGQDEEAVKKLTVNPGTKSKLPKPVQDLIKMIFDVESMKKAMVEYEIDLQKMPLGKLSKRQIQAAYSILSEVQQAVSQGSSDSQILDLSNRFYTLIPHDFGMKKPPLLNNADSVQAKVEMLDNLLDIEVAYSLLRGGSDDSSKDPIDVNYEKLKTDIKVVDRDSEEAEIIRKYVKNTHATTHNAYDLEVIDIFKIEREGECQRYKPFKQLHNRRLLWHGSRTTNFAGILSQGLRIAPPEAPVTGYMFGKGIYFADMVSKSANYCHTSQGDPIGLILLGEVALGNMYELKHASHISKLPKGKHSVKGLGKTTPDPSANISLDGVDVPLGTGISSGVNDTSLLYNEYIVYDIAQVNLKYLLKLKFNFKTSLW

B1: N13 peptide (mimic peptide of NUDT13 230–252 AA) (peptide, UniProt Q86X67 230-252, looked up)
peptide: GFCDIGESVEETIRREVAEEVGL
notes: The peptide was synthesized conjugated with the membrane-penetrating peptide iRGD (N13-iRGD); also called N13-iRGD; source: synthetic peptide
Take B1: in assay [1], the binding result is on record as “binds”.

Regarding B2, the binding result in assay [2] is recorded as “binds”.
